These results are taken from paper PMC11208146, “Molecular basis for transposase activation by a dedicated AAA+ ATPase” (Nature, 2024).

This assay concerns the target IstA transposase, wild type, full length (IS5376, Geobacillus stearothermophilus) (Geobacillus stearothermophilus). The assay can be described thus: cryo-EM structure; IstA pre-incubated with strand-transfer-complex DNA (3.3:1), then IstB E167Q (5:1 to IstA), 37 °C; 20 mM HEPES pH 7.5, 150 mM NaCl, 5 mM MgCl2, 1 mM ATP, 1 mM DTT; 3.6 Å.

The substance “IstA transposase, wild type, full length (IS5376, Geobacillus stearothermophilus) (enzyme)” gave a stoichiometry N of 4.

The stoichiometry N is the number of molecules, sites or subunits per partner or assembly.
